{"source": "patent US20040260058A1", "about": "(published 2004)", "binders": {"B1": {"name": "Gal4 DNA-binding domain fused to the L119 protein (yeast two-hybrid bait) (other)", "chain": "MKLLSSIEQACDICRLKKLKCSKEKPKCAKCLKNNWECRYSPKTKRSPLTRAHLTEVESRLERLEQLFLLIFPREDLDMILKMDSLQDIKALLTGLFVQDNVNKDAVTDRLASVETDMPLTLRQHRISATSSSEESSNKGQRQLTVSMEKWTAWEPQGADALRRFQGLLLDRRGRLHCQVLRLREVARRLERLRRRSLAANVAGSSLSAAGALAAIVGLSLSPVTLGASLVASAVGLGVATAGGAVTITSDLSLIFCNSREVRRVQEIAATCQDQMRELLSCLEFFCQWQGRGDRQLLQSGRDASMALYNSVYFIVFFGSRGFLIPRRAEGATKVSQAVLKAKIQKLSESLESCTGALDELSEQLESRVQLCTKAGRGHNLRNSPDLDAALFF", "notes": "also called L119 bait"}}, "assay_in_all_cases": "yeast two-hybrid screen; number of positive colonies with this interactor", "key": {"[1]": {"biological_target": "Matrilin-2 (rat, UniProt A0A8I6GJR4 24-910)", "sequence (A0A8I6GJR4 entry or part of it)": "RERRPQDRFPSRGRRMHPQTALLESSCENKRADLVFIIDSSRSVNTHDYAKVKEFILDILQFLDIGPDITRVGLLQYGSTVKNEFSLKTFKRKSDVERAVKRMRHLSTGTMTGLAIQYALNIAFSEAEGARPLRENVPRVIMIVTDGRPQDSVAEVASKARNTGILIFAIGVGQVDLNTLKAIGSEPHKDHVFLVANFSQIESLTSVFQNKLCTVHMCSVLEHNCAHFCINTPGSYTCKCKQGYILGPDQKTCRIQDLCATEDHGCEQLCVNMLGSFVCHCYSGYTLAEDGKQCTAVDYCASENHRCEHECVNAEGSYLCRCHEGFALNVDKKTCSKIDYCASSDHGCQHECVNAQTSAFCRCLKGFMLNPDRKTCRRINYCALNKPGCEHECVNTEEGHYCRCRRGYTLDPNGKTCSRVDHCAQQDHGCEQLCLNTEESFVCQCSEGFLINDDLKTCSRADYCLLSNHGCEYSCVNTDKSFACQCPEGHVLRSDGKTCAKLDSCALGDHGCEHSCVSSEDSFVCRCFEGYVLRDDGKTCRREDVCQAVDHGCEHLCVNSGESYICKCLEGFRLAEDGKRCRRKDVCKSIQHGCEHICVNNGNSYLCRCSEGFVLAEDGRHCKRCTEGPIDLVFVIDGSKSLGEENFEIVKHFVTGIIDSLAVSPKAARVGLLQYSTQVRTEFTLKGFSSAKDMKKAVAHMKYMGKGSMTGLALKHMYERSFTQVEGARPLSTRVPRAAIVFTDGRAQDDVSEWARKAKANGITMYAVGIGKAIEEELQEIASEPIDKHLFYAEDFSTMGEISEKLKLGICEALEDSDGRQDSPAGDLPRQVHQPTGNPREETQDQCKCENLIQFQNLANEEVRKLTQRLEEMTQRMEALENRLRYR", "experimental": "(§1) A yeast two hybrid screen was carried out in order to identify A proteins which interact with L119. The entire coding region of the L119 cDNA was amplified in a polymerase chain reaction (PCR) and cloned into vector pPC86. The oligonucleotide primers having the sequences SEQ ID NO: 35 and 36 were used to do this. A 50 μl PCR mixture was prepared from 5 μl of 10× cloned Pfu buffer (Stratagene); 2 μl of DNTP mixture (5 mM; Cat. No. 1969064, Roche Diagnostics GmbH, Mannheim, Germany); in each case 2 μl of the abovementioned primer pairs (stock conc. 10 μM); 100 ng of rL119 cDNA template, 35 μl of H₂O and 1 μl of Pfu turbo DNA polymerase (Stratagene), and, after it had been incubated at 94° C. for 3 minutes, 28 PCR cycles were then carried out in accordance with the following temperature programm: 1 min of primer annealing at 56° C., 1 min of strand extension at 72° C. and 1 min of DNA double-strand melting at 94° C., together with a concluding extension step of 7 min at 72° C. The resulting PCR products were gel-purified, cut with the restriction enzymes SalI and NotI and cloned into the corresponding restriction cleavage sites of pPC86. The DNA construct obtained in this way encodes a protein in which the Gal4 DNA-binding domain is fused to the L119 protein. The yeast strain Y190 (Flick JS and Johnston M (1990) Mol. Cell. Biol. 10, 4757-4769; Harper J et al. (1993) Cell 75, 805-816) (from Life Technologies) was transformed with this construct. The resulting yeast strain was transformed with a rat brain cDNA library (obtained from cortex and hippocampus RNA, following maximal electroconvulsive shock (MECS) (Antony Lanahan and Paul Worley)) in the vector pPC86 (from Life Technologies), and 3×10⁶ transformants were plated out. After 3 to 5 days of growth at 30° C., colonies having a diameter of more than 2 mm were isolated and subjected to X-Gal staining (protocol: ProQuest™ Two-Hybrid System, Cat. Series 10835, Life Technologies) . […] The respective cDNA from these colonies was amplified using vector-specific primers and the-amplicon was sequenced (protocol: ProQuest™ Two-Hybrid System, Cat. Series 10835, Life Technologies). The sequence analysis gave 8 different putative interacting proteins (Table 1): […]"}, "[2]": {"biological_target": "Nel (rat, UniProt Q62918)", "sequence (Q62918 whole entry)": "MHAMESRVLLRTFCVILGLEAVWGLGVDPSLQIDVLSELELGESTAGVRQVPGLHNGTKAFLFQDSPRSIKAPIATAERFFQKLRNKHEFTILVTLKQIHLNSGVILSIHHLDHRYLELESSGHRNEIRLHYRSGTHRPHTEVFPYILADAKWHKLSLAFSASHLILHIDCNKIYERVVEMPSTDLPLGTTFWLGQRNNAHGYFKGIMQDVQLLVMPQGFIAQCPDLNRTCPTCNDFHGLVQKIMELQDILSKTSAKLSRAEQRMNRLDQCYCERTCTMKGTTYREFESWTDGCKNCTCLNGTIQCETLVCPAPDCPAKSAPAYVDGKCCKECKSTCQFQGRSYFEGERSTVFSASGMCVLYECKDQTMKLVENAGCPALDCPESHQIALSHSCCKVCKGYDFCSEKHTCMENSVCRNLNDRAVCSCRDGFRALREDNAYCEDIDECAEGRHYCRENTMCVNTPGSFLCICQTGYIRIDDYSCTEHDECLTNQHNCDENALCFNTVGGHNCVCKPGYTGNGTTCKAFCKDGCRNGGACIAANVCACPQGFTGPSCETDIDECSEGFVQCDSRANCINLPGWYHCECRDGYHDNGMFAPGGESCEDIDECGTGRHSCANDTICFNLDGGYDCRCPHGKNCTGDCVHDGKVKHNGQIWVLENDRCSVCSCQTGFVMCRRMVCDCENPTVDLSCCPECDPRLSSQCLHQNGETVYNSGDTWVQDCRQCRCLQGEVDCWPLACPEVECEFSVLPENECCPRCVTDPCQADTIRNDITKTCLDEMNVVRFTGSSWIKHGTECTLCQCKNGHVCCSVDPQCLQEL", "experimental": "as §1"}, "[3]": {"biological_target": "Notch 4 (rat)", "experimental": "as §1"}, "[4]": {"biological_target": "Laminin alpha-4 chain (rat)", "experimental": "as §1"}}, "data": [{"binder": "B1", "values": [{"measurement": "# Frequency", "setting": "[1]", "value": 1}, {"measurement": "# Frequency", "setting": "[2]", "value": 5}, {"measurement": "# Frequency", "setting": "[3]", "value": 3}, {"measurement": "# Frequency", "setting": "[4]", "value": 1}]}]}
